Reference: PMC3794954, “An Improved SELEX-Seq Strategy for Characterizing DNA-Binding Specificity of Transcription Factor: NF-κB as an Example”

B1: positive dsDNA (dsDNA)
DNA 1: ACTGTCTGAGGAGTGTCGTGTGCTAAAGGGACTTTCCAAAACGACTCAGCACCACTTCACTCAC
DNA 2: GTGAGTGAAGTGGTGCTGAGTCGTTTTGGAAAGTCCCTTTAGCACACGACACTCCTCAGACAGT
B2: probe b (GGGACTTTCCC) (dsDNA)
DNA 1: AGTTGAGGGGACTTTCCCAGGC
DNA 2: GCCTGGGAAAGTCCCCTCAACT

How the values were obtained:
[1] = target: T1, NF-kB p50 (UniProt P19838 1-433); assay: EMSA; no polydI-dC; 1x DBB (from 5x): 10 mM Tris-HCl pH 7.5, 50 mM NaCl, 0.5 mM EDTA, 3 mM MgCl2, 1% glycerol, 0.5 mg/ml BSA, 0.05% NP-40, 0.01 mM DTT; room temperature 60 min; 6%; details: protein: commercial; chain copies: 2; label: 5' FAM on reverse strand (primer P-R); blunt
[2] = target: T1, NF-kB p50; assay: EMSA; higher affinity than the 3' T probe; 1x DBB (from 5x): 10 mM Tris-HCl pH 7.5, 50 mM NaCl, 0.5 mM EDTA, 3 mM MgCl2, 1% glycerol, 0.5 mg/ml BSA, 0.05% NP-40, 0.01 mM DTT; room temperature 60 min; 6%; details: protein: commercial; chain copies: 2; label: biotin at ends; blunt

T1 sequence (P19838 1-433): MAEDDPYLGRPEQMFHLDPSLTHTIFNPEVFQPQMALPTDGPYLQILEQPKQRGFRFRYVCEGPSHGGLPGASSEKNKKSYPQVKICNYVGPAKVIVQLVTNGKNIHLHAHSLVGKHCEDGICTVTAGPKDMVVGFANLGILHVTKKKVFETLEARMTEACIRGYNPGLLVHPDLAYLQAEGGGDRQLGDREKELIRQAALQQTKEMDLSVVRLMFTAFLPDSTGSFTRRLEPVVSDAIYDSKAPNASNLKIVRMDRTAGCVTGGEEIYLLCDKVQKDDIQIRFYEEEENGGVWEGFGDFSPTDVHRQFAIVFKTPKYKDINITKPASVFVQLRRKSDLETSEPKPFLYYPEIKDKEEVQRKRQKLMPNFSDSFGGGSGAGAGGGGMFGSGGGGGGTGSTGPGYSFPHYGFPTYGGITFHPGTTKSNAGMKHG

Row | Binder | binding result [1] | binding result [2]
1 | B1 | binds | –
2 | B2 | – | binds
